Source: PMC12249575

Biological target: EcSofic H194A mutant (Sofic from Escherichia coli H397) (Escherichia coli H397)
Assay: AUC; sedimentation velocity, 50,000 rpm, 12 °C; samples 0.8 mg/mL in 20 mM Tris-HCl pH 7.5, 100 mM NaCl, 1 mM DTT; SEDFIT

Substance: EcSofic H194A mutant (Sofic from Escherichia coli H397) (enzyme)
- stoichiometry N: 2
